Tested on: MS2 coat protein
Assay: apparent KD of MS2 coat protein; designed switch direction (-1 OFF switch, 1 ON switch): 1; higher = weaker reporter binding
Procedure, shortened: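 Three titration conditions were used: no input, 200 uM small-molecule ligand, and an oligonucleotide input. In each, SNAP-549-labelled MS2 coat protein was raised from 0.7 or 1.5 nM, doubling, to 3 µM over designed RNA switches transcribed on Illumina chips by stalled E. coli RNA polymerase. Curve fits of normalised cluster fluorescence gave values whose per-design median over clusters is the apparent KD.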

[1] = input ligand: microRNA oligo, concentration not stated
[2] = Eterna round: R95, input ligand: FMN 200 uM
[3] = Eterna round: R95, input ligand: microRNA oligo, concentration not stated
[4] = Eterna round: R95, input ligand: none

Row | Sequence | apparent KD of MS2 coat protein (input ligand: FMN 200 uM) [nM] | apparent KD of MS2 coat protein [1] [nM] | apparent KD of MS2 coat protein (input ligand: none) [nM] | apparent KD of MS2 coat protein [2] [nM] | apparent KD of MS2 coat protein [3] [nM] | apparent KD of MS2 coat protein [4] [nM]
1 | GUGGUCAGACAUGAGGAUCACCCAUGUGGAAUAAAUAACGUACAGGAUAUGGAAUAUAGGAUAUACUAGAAGGGUAGAUUGGUG (Eterna round: R96, puzzle: Same State NG 3) | 110 | 75.3 | 87.7 |  |  | 
2 | GGGCCAGCUUUUGCUGGGCCUUCGCUUGCACAUGAGGAUCACCCAUGUCGUGUACACGCUUCCUGCCCGUCUUUUUU [Photon Torp-18] (puzzle: Sensor for hsa-mir-208a) |  |  |  | 21.2 | 13.6 | 21.8
3 | AUUAAACAUGAGGAUCACCCAUGUCAACUAAGUCGAGGAUAUGGGCAAAUAAAAUAAGAACCAGAAGGCGAAUAAU [salish99_ss1_r3_074] (puzzle: Same State 1) |  |  |  | 55.9 | 347 | 260
4 | AUUAAACAUGAGGAUCACCCAUGUCAACAAAGUCGAGGAUAUGGGCAUAUUAUCUUCUUUCCAGAAGGCGAAUAAU [salish99_ss1_r3_089] (puzzle: Same State 1) |  |  |  | 431 | 136 | 404
5 | CGUCGUUUGUUAGGAUAUCGCUAUACAUGAGGAUCACCCAUGUUUACCACGCUGGUUUUUCAUACCGAGAAGGAUUCUGAUGUU [salish99_SSNG02_r04_019] (Eterna round: R96, puzzle: Same State NG 2) | 42.5 | 31.6 | 37.8 |  |  | 
6 | UGGCUCAGAGCAGGAUAUAUGUGAUCACAUGAGGAUCACCCAUGUCUCGAGCUUCGGCUCGAGACAUAGAAGGGCUCUGAGCCA [SSNG2/3-B2] (Eterna round: R96, puzzle: Same State NG 2) | 23.3 | 21.8 | 22.5 |  |  | 
7 | AAUUCAAACAGAGGAUAUUGUUUAUCUCUAUUGCAAGAAGGCUGAUCUUACUACUUACUUAUGAAACAUGAGGAUCACCCAUGU [JR_SSNG1_Sub019] (Eterna round: R96, puzzle: Same State NG 1) |  | 29.3 |  |  |  | 
8 | AACAUACAUGAGGAUCACCCAUGUUCCGGCAGGACAGGAUAUACAUCGAAAGUGUUAUAAGUAGAAGGGUCAUAAA [JR_SS001_Sub012] (Eterna round: R96, puzzle: Same State 1) | 63.4 | 56.6 | 79.8 |  |  | 
9 | AGUCCUGAAAAGAAAAUACAGAGACAUGUACAUGAGGAUCACCCAUGUCAUGUACAAGUUCUAUGCUCGUCAUAUAA [Sensorship 20 - Jieux - Sensor for hsa-mir-208a] (puzzle: Sensor for hsa-mir-208a) |  |  |  | 22.4 | 15.8 | 21
10 | UGGCUCAGACUAGGAUAUGAUCAUGGCGCUUCGGCGCAUACAUGAGGAUCACCCAUGUAAAGUGAUCAGAAGGAGUCUGAGCCU [SSNG2/7-C3] (Eterna round: R96, puzzle: Same State NG 2) | 14.2 | 10.6 | 19.7 |  |  | 
11 | GAGGGACGGACGAACAUGAGGAUCACCCAUGUCCUCGGAGGUCAGGAUAUCCGGAGGUAGCCGAAGGAGAAGGGACGGUGAACC [AK SSNG3-V2-31.1] (Eterna round: R96, puzzle: Same State NG 3) | 104 | 51.5 | 85.7 |  |  | 
12 | UGUUGUAUUACAGGAUAUCUAUUGUUUUUAUAUAGAGAAGGGUAUUCACAUGAGGAUCACCCAUGUAUAUACGAGGAAGUUGUG [JMF's solution 84] (Eterna round: R96, puzzle: Same State NG 1) |  | 33.2 |  |  |  | 
13 | GGAGCCUGCACUGAGGAUAUUCAUAUUUAAACAUGAGGAUCACCCAUGUAGGCCAGAAGGCCUUGGGAGAAGGCAGGUCGGCUCG [salish99_ss2_r3_083] (puzzle: Same State 2) |  |  |  | 35.3 | 372 | 780
14 | GUAGCAUGCAGGCAGGAUAUUCAUAUUAAAACAUGAGGAUCACCCAUGUAGGCCAAAAGGCCUUGGGAGAAGGGCCACAUGCUAC [Xeonanis - 19] (puzzle: Same State 2) |  |  |  | 34.9 | 488 | 842
15 | UUCACCUUUUUUUACAUGAGGAUCACCCAUGUUUUUUUUACGUAGGAUAUCGAUGCUUGUUUUUUCGAGAAGGACGAUGUAAGU [JR_SSND3_Sub052] (Eterna round: R96, puzzle: Same State NG 3) | 16.7 | 12.2 | 18.2 |  |  | 
16 | UAAGAACAUGAGGAUCACCCAUGUGGAAAGAACACAGGAUAUCAUAGAAGGACGCGACUAUGAGAAGGGUGACACG [Lequat] (puzzle: Same State 1) |  |  |  | 390 | 104 | 218
17 | GGAGCCUGCACUGAGGAUAUUCAUAGUGUAACAUGAGGAUCACCCAUGUGUCGCCGUAGCGACUGGGAGAAGGCAGUGCGGCUCG [JL-ss2-3.06 ViennaUCT mod] (puzzle: Same State 2) |  |  |  | 38.4 | 180 | 325
18 | AGUCCAGCCUAAGCUGGACAAAAGCAUGUACAUGAGGAUCACCCAUGUUCAUGUACAAGCUUUUUGCUCGUCUUAAG [Mat - hsa-mir-208a - Mod of JL - 65] (puzzle: Sensor for hsa-mir-208a) |  |  |  | 864 | 18.7 | 844
19 | AGAGGAGGAGCAGGAUAUUCGAAGGAGGACGUGGAAGAAGGGUUCAUGCGAUGACAUGAGGAUCACCCAUGUACCGCGCGUCGA [AK SSNG1-V2-15] (Eterna round: R96, puzzle: Same State NG 1) | 381 | 126 | 484 |  |  | 
20 | CCGAUUGAUGGAGGAUAUGGAGCCUUAUUGGCUCCAGAAGGCUAAUAACAUGAGGAUCACCCAUGUCGGCGGUCUAAUGACCGA [Eli NG1ss - 54] (Eterna round: R96, puzzle: Same State NG 1) | 36.1 | 57.5 | 69.1 |  |  | 
21 | GUAGCAUACCGAGGAUAUUCAUACAUGAGGAUCACCCAUGUUAUUAUAGGACGAUUACGUCCUUGGGAGAAGGCGGAAUGCUAC [Xeonanis - 20 Mod29] (Eterna round: R96, puzzle: Same State NG 2) | 10.2 | 11.8 | 15.1 |  |  | 
22 | AAAUAAAACACAGGAUAUGCAACCAAUACGGCGGCAGAAGGGUGAGACAUGAGGAUCACCCAUGUACACGUCCCACAGACGUGC [Onlaa] (Eterna round: R96, puzzle: Same State NG 1) | 387 | 243 | 175 |  |  | 
23 | AGUCCAGCCUGAGCUGGACAAAAGUAUGUACAUGAGGAUCACCCAUGUCAUGUACAAGCUUUUUGCUCGUUUUAAUA [Zipper 49 - 17] (puzzle: Sensor for hsa-mir-208a) |  |  |  | 424 | 33.8 | 517
24 | GUUAUACAUGAGGAUCACCCAUGUCAAUGUAGUCGAGGAUAUGGGUUGCUAUGAGGCGUACUAGAAGGCGAGGAGU [JL-ss1-3.17 ViennaUCT mod] (puzzle: Same State 1) |  |  |  | 297 | 98.8 | 265
25 | UAAACUUCUUUUAGUGUGUUGCGAGUGAAACAUGAGGAUCACCCAUGUAAAGGAUUGUGGUAUUUUGUUCGUCUUAA [JR_SHM208A_Sub075] (puzzle: Sensor for hsa-mir-208a) |  |  |  | 75.2 | 41.4 | 98.8
26 | GCCGUAAACAUGAGGAUCACCCAUGUAAACGCGAGAGUGGAUGAGGAUAUCGAUGGGUUUCCCGUCGAGAAGGCGUGGGUCGGC [JL SSNG3 3.99] (Eterna round: R96, puzzle: Same State NG 3) | 36.2 | 31.8 | 46.1 |  |  | 
27 | AAGGGAUGAGCGUAGGAUAUAGGAGAAGUGACAUGAGGAUCACCCAUGUAAAAGGAGGGAUGAGACUAGAAGGACGAGGUAGGAG [JR_SS2_Sub059] (Eterna round: R96, puzzle: Same State 2) | 82.7 | 55.4 | 78.3 |  |  | 
28 | GAGAGACGAUUAGGAUAUACGGUGAUAAUGAUAGUAGAAGGAAUUGACAUGAGGAUCACCCAUGUAGGAAUAAUCCAGAGAGAG [Parity 26 - Jieux - Same State NG 1] (Eterna round: R96, puzzle: Same State NG 1) | 81.2 | 93.2 | 86.8 |  |  | 

From the supplement of paper PMC9170038
